Test results reported in PMC5340296.

Biological target: YFP–CPR5 (translational fusion of the yellow fluorescent protein to CPR5) (Arabidopsis thaliana) (UniProt Q9LV85)
Assay: FRET or BRET

Sequence of UniProt Q9LV85 (Q9LV85 whole entry, the tested form may be a part): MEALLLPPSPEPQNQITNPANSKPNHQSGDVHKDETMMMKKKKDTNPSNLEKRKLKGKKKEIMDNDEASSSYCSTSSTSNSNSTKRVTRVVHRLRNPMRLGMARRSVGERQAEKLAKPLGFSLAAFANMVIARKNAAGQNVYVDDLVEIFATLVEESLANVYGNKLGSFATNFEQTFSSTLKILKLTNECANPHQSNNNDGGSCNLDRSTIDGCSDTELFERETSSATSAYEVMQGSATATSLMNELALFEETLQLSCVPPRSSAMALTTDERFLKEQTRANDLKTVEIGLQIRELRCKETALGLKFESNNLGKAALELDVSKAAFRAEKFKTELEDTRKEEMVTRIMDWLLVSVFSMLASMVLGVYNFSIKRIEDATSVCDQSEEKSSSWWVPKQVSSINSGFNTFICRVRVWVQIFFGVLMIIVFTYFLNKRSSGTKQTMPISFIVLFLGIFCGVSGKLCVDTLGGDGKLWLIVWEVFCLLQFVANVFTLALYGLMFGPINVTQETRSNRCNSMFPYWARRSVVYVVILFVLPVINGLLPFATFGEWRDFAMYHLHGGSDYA

With “CFP–sbZIP60 (cyan fluorescent protein fused to spliced full-length bZIP60) (natural protein)” as the substance, how does the FRET efficiency read?
The FRET efficiency was 10%.
